# B1: ATGL (PNPLA2, patatin-like phospholipase domain-containing protein 2), human, full length / CGI-58 (ABHD5, 1-acylglycerol-3-phosphate O-acyltransferase ABHD5), human (parent)
# chain 1: MFPREKTWNISFAGCGFLGVYYVGVASCLREHAPFLVANATHIYGASAGALTATALVTGVCLGEAGAKFIEVSKEARKRFLGPLHPSFNLVKIIRSFLLKVLPADSHEHASGRLGISLTRVSDGENVIISHFNSKDELIQANVCSGFIPVYCGLIPPSLQGVRYVDGGISDNLPLYELKNTITVSPFSGESDICPQDSSTNIHELRVTNTSIQFNLRNLYRLSKALFPPEPLVLREMCKQGYRDGLRFLQRNGLLNRPNPLLALPPARPHGPEDKDQAVESAQAEDYSQLPGEDHILEHLPARLNEALLEACVEPTDLLTTLSNMLPVRLATAMMVPYTLPLESALSFTIRLLEWLPDVPEDIRWMKEQTGSICQYLVMRAKRKLGRHLPSRLPEQVELRRVQSLPSVPLSCAAYREALPGWMRNNLSLGDALAKWEECQRQLLLGLFCTNVAFPPEALRMRAPADPAPAPADPASPQHQLAGPAPLLSTPAPEARPVIGALGL
# chain 2: MAAEEEEVDSADTGERSGWLTGWLPTWCPTSISHLKEAEEKMLKCVPCTYKKEPVRISNGNKIWTLKFSHNISNKTPLVLLHGFGGGLGLWALNFGDLCTNRPVYAFDLLGFGRSSRPRFDSDAEEVENQFVESIEEWRCALGLDKMILLGHNLGGFLAAAYSLKYPSRVNHLILVEPWGFPERPDLADQDRPIPVWIRALGAALTPFNPLAGLRIAGPFGLSLVQRLRPDFKRKYSSMFEDDTVTEYIYHCNVQTPSGETAFKNMTIPYGWAKRPMLQRIGKMHPDIPVSVIFGARSCIDGNSGTSIQSLRPHSYVKTIAILGAGHYVYADQPEEFNQKVKEICDTVD
# B2: ATGL (PNPLA2, patatin-like phospholipase domain-containing protein 2), human, full length / G0S2 (G0/G1 switch protein 2), human (parent)
# chain 1: B1 chain 1
# chain 2: METVQELIPLAKEMMAQKRKGKMVKLYVLGSVLALFGVVLGLMETVCSPFTAARRLRDQEAAVAELQAALERQALQKQALQEKGKQQDTVLGGRALSNRQHAS
# Variants of: B1
# Assay: LUMIER: Protein A-ATGL variant and firefly luciferase-partner co-expressed in HEK293T, lysates immunoprecipitated on IgG-coated plates, co-precipitated partner measured as luciferase luminescence
# Settings: with CGI-58 (ABHD5, 1-acylglycerol-3-phosphate O-acyltransferase ABHD5), transient co-transfection, IgG-coated LUMITRAC plates, 2 h at 4 °C, three PBS washes, Bright-Glo luciferase reagent, triplicates per assay, two …, parent: 0.32, not graded, scale: log2 fold change of co-immunoprecipitated luminescence relative to wild-type ATGL within each experiment
row,Variant,screen value
1,chain 1 G16K,-0.139
2,chain 1 L62A,-0.556
3,chain 1 L62K,-0.614
4,chain 1 G59L,-0.404
5,chain 1 G189E,-1.39
6,chain 1 K275A,-0.731
7,chain 1 F348E,-0.83
8,chain 1 G153K,-0.536
9,chain 1 G153A,-0.595
10,chain 1 I70A,-0.496
11,chain 1 I70K,-0.355

# Continued, values first:
row,screen value,Variant
1,-0.089,chain 1 P103K
2,-0.532,chain 1 L102K
3,-0.502,chain 1 Q396A
4,-0.948,chain 1 R351L
5,-0.598,chain 1 L178A
6,0.189,chain 1 R113K
7,-0.625,chain 1 R113L
8,0.269,chain 1 T41A
9,-0.121,chain 1 R95L
10,0.177,chain 1 R95K
11,-0.513,chain 1 V328A
12,-0.449,chain 1 V127L
13,-0.444,chain 1 Q140K
14,0.428,chain 1 Q140A
15,-1.23,chain 1 P258L
16,-0.244,chain 1 S87A
17,-0.0233,chain 1 S87E
18,-0.3,chain 1 N39E
19,-0.737,chain 1 L159A
20,0.402,chain 1 S158A
21,-0.0835,chain 1 S158E
22,-0.174,chain 1 P86K
23,-1.2,chain 1 L261E
24,0.149,chain 1 Y415A

# Same assay, conditions: with CGI-58 (ABHD5, 1-acylglycerol-3-phosphate O-acyltransferase ABHD5), transient co-transfection, IgG-coated LUMITRAC plates, 2 h at 4 °C, three PBS washes, Bright-Glo luciferase reagent, triplicates per assay, two …, parent: 0.45, not graded, scale: log2 fold change of co-immunoprecipitated luminescence relative to wild-type ATGL within each experiment
row,Variant,screen value
1,chain 1 G16K,0.515
2,chain 1 L62A,-0.528
3,chain 1 L62K,-0.447
4,chain 1 G59L,-0.665
5,chain 1 G189E,-1.13
6,chain 1 K275A,-0.473
7,chain 1 F348E,-1.02
8,chain 1 G153K,-0.602
9,chain 1 G153A,-0.455
10,chain 1 I70A,-0.552
11,chain 1 I70K,-0.676

# Next, values leading:
row,screen value,Variant
1,0.0251,chain 1 P103K
2,-0.83,chain 1 L102K
3,-0.818,chain 1 Q396A
4,-1.04,chain 1 R351L
5,-0.392,chain 1 L178A
6,0.534,chain 1 R113K
7,-0.259,chain 1 R113L
8,0.283,chain 1 T41A
9,-0.396,chain 1 R95L
10,-0.0705,chain 1 R95K
11,-0.464,chain 1 V328A
12,-0.203,chain 1 V127L
13,0.322,chain 1 Q140K
14,0.0685,chain 1 Q140A
15,-1.16,chain 1 P258L
16,-0.0566,chain 1 S87A
17,-0.304,chain 1 S87E
18,-0.215,chain 1 N39E
19,-0.542,chain 1 L159A
20,0.00753,chain 1 S158A
21,-0.000176,chain 1 S158E
22,-0.669,chain 1 P86K
23,-0.989,chain 1 L261E
24,-0.124,chain 1 Y415A

# Variants of: B2
# Assay: as above
# Settings: with G0S2 (G0/G1 switch protein 2), transient co-transfection, IgG-coated LUMITRAC plates, 2 h at 4 °C, three PBS washes, Bright-Glo luciferase reagent, triplicates per assay, two …, parent: 0.26, not graded, scale: log2 fold change of co-immunoprecipitated luminescence relative to wild-type ATGL within each experiment
row,Variant,screen value
1,chain 1 A104E,-0.113
2,chain 1 K92L,0.251
3,chain 1 I70A,-1.03
4,chain 1 I70K,-1.77
5,chain 1 E125L,-0.308
6,chain 1 F35E,-0.0735
7,chain 1 F35A,-0.163
8,chain 1 A434L,0.461
9,chain 1 G153A,-1.31
10,chain 1 G153K,-1.68
11,chain 1 G66A,0.751
12,chain 1 G66L,-0.176
13,chain 1 K275A,-0.535
14,chain 1 H109E,0.353
15,chain 1 G189E,-2.28
16,chain 1 E314A,0.00238
17,chain 1 F348E,-0.115
18,chain 1 L62K,-1.38
19,chain 1 L62A,-1.67

# Other lines, results leading:
row,screen value,Variant
1,-2.65,chain 1 L102K
2,-0.634,chain 1 L178A
3,-0.622,chain 1 L261E
4,-0.413,chain 1 L159A

# Same assay, conditions: with G0S2 (G0/G1 switch protein 2), transient co-transfection, IgG-coated LUMITRAC plates, 2 h at 4 °C, three PBS washes, Bright-Glo luciferase reagent, triplicates per assay, two …, parent: 0.56, not graded, scale: log2 fold change of co-immunoprecipitated luminescence relative to wild-type ATGL within each experiment
row,Variant,screen value
1,chain 1 A104E,0.0584
2,chain 1 K92L,-0.642
3,chain 1 I70A,-1.14
4,chain 1 I70K,-2.22
5,chain 1 E125L,-0.181
6,chain 1 F35E,0.169
7,chain 1 F35A,-0.133
8,chain 1 A434L,-0.0543
9,chain 1 G153A,-1.25
10,chain 1 G153K,-2.61
11,chain 1 G66A,0.00762
12,chain 1 G66L,-0.16
13,chain 1 K275A,-0.748
14,chain 1 H109E,0.0835
15,chain 1 G189E,-2.66
16,chain 1 E314A,-0.218
17,chain 1 F348E,-0.287
18,chain 1 L62K,-1.99
19,chain 1 L62A,-2.25

# Next, values leading:
row,screen value,Variant
1,-2.45,chain 1 L102K
2,0.0997,chain 1 L178A
3,-0.673,chain 1 L261E
4,-0.671,chain 1 L159A

# Reference: paper PMC10958042
